Laboratory results published in article PMC4643876 (2015).
Where two headings read alike, the source gives them in different places. Ends that are not written are not given here. * marks the point of attachment. Biotin = O=C1N[C@H]2[C@H](CS[C@H]2CCCCC(=O)*)N1; Octanoyl = CCCCCCCC(=O)*; GABA = NCCCC(=O)O

What was measured:
[1] = biological target: T1, GFP-tagged Plasmepsin V (PmV-GFP), P. falciparum clone DC6 (Plasmodium falciparum); assay: 3 uM HRPII-PExEl substrate
[2] = biological target: T1, GFP-tagged Plasmepsin V (PmV-GFP), P. …
[3] = biological target: T1, GFP-tagged Plasmepsin V (PmV-GFP), P. …; assay: 3 uM HRPII-PExEl substrate; remark: listed apart in the source
[4] = biological target: T1, GFP-tagged Plasmepsin V (PmV-GFP), P. …; remark: listed apart in the source
[5] = biological target: T1, GFP-tagged Plasmepsin V (PmV-GFP), P. …; assay: 3 uM HRPII-PExEl substrate; remark: listed apart in the source

T1 sequence (Q8I6Z5 whole entry): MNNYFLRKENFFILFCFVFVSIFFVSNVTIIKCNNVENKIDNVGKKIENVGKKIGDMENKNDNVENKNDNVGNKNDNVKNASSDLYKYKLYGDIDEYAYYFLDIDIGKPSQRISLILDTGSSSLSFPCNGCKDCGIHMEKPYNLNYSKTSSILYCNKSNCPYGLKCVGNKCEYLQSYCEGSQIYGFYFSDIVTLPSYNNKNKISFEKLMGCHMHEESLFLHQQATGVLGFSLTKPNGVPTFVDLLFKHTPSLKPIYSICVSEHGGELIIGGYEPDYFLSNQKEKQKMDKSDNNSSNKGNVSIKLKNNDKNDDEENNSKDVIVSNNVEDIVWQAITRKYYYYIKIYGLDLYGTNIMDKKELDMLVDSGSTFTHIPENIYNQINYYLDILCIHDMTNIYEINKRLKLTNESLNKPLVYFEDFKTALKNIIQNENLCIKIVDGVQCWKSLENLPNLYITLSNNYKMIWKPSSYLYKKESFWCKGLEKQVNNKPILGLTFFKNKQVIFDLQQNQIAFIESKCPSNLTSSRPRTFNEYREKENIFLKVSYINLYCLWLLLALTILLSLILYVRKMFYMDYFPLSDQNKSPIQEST

## RLLAEA (also: hydroxyethylamino (HEA) isostere in place of peptide bond Leu3-Ala4) [Compound 1 (LG20), RL[L~A]EA]
[1]
  IC50: 0.37 nM

## RLLYEA (not fully specified; also: HEA isostere replaces the Leu3-Tyr4 peptide bond) [Compound 7a]
[2]
  Ki: 0.74 nM
[3]
  IC50: 1.38 nM

## {Biotin-GABA-GABA}-RLLAEA (also: hydroxyethylamino (HEA) isostere in place of peptide bond Leu3-Ala4) [Compound 36, a biotinylated version of Compound 1]
[4]
  Ki: 22.5 nM
[5]
  IC50: 41.9 nM

B1: Compound 37a (octanoyl group at the N-terminus of Compound 7a) (peptide)
peptide: Octanoyl-RLLYEA
modifications: also: hydroxyethylamino (HEA) isostere in place of peptide bond Leu3-Tyr4, carbinol S
[4]
  Ki: 0.01 nM
